# Assay results as given in US7419968B1, “Methods for treating therapy-resistant tumors” (Celmed Oncology (USA), Inc., priority 1999, dated 2008).
# B1: recombinant human thymidylate synthase (rHuTS) (Homo sapiens) (protein)
# chain: MPVAGSELPRRPLPPAAQERDAEPRPPHGELQYLGQIQHILRCGVRKDDRTGTGTLSVFGMQARYSLRDEFPLLTTKRVFWKGVLEELLWFIKGSTNAKELSSKGVKIWDANGSRDFLDSLGFSTREEGDLGPVYGFQWRHFGAEYRDMESDYSGQGVDQLQRVIDTIKTNPDDRRIIMCAWNPRDLPLMALPPCHALCQFYVVNSELSCQLYQRSGDMGLGVPFNIASYALLTYMIAHITGLKPGDFIHTLGDAHIYLNHIEPLKIQLQREPRPFPKLRILRKVEKIDDFKAEDFQIEGYNPHPTIKMEMAV
# notes: His tag (N); made in house; host or cells: E. coli BL21 (DE3), pET-28a(+)
# Substrate: O=c1[nH]c(=O)n([C@H]2C[C@H](O)[C@@H](COP(=O)(O)O)O2)cc1/C=C/Br
# Experiment: Enzyme kinetics of rHuTS with dUMP and BVdUMP
# Type: biochemical, human
# Conditions: other: rHuTS; 37.0 °C
# Protocol: L. Enzyme Preparation. Cloned human thymidylate synthase plasmid pBCHTS was subcloned into E. coli. BL21 (DE3)/pET-28a(+) (Novagen) using the NdeI ñSacI insertion site, in order to add an amino terminal His tag. […] M. Enzyme Assays and Kinetic Measurements. […] Tetrahydrofolate stock solutions were prepared by dissolving tetrahydrofolic acid (Sigma) directly into 0.2 M Tris pH 7.5, 0.5 M-mercaptoethanol; stock solutions were stored at -80° C. […] N5, N10-methylene tetrahydrofolate was kept on ice and used within 2 hours of preparation. […] The catalytic efficiency of the enzyme (Kcat/Km) was calculated from the kinetic constants Km and Vmax.
protein,measurement,value
B1,Km,16 μM μM
